In assay [1] the target is T1, IgG Fc-hVEGF-A (Human VEGF 165) fusion protein (rabbit; human, UniProt P15692-4 27-191).
T1 construct: Expressed in HEK 293-6E cells and purified on Protein A; not shown: rabbit IgG Fc
The assay is described as follows: competitive ELISA: antibody mixed with IgG Fc-hVEGF, added to plate-bound IgG Fc-VEGFR2 (KDR); bound VEGF detected (OD405) [FIG. 1]. For orientation: In an ELISA, binding on a coated surface is turned into a signal by an enzyme label.

Assay [2] has as its target T2, human VEGF (human, UniProt P15692-4 27-191, limits assumed).
T2 construct: The background describes VEGF as a homodimer
The assay is described as follows: SPR, BIAcore-3000, human VEGF on CM5 chip; reference AVASTIN.

Assay [3] deals with T2, human VEGF. The experiment in a line: SPR, BIAcore-3000, human VEGF on CM5 chip. A general note: Surface plasmon resonance follows binding to a sensor surface in real time, without labels.
Assay [4] concerns the target T2, human VEGF. The assay is described as follows: SPR, BIAcore-3000, human VEGF on CM5 chip, experiment 1.
Assay [5] addresses T1, IgG Fc-hVEGF-A (Human VEGF 165) fusion …. The assay is described as follows: competitive ELISA: antibody premixed with IgG Fc-hVEGF, plate coated with IgG Fc-VEGFR2 (KDR).
Assay [6] concerns the target T2, human VEGF. The experiment in a line: SPR, BIAcore-3000, human VEGF on CM5 chip, experiment 2.
Assay [7] addresses T1, IgG Fc-hVEGF-A (Human VEGF 165) fusion …. The assay is described as follows: direct binding ELISA on plate-bound IgG Fc-hVEGF, detection with donkey anti-human IgG-AP (OD405) [FIG. 4].
In assay [8] the target is T2, human VEGF. The experiment in a line: SPR, BIAcore-3000, human VEGF on CM5 chip, average of two experiments.

Where a chain is given by its changes, count along the chain named.

T2 sequence (P15692 other isoform, or with tags, fused parts or gaps limits assumed): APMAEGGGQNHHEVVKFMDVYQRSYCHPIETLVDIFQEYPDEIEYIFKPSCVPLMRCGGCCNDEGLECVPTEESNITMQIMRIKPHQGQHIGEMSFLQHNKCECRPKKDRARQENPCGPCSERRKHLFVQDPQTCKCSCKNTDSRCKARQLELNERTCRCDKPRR
T1 sequence (P15692 other isoform, or with tags, fused parts or gaps limits assumed): as above

B1: recombinant humanized antibody expressed by the HZD-V1 clone (antibody, V domains shown)
VH: QQLVESGGGLVKPGGSLRLSCAASGFSFSNNDVMCWVRQAPGKGLEWIGCIMTTDVVTEYANWAKSRFTVSKDSAKNSVYLQMNSLRAEDTAVYFCARDSVGSPLMSFDLWGPGTLVTVSS
VL: ALQMTQSPSSLSASVGDRVTINCQASQSVYGNNELSWYQQKPGKPPKLLIYRASTLASGVPSRFSGSGSGTDFTLTISSLQPEDVATYYCGGYKSYSNDGNGFGGGTKVEIK
notes: The pairing of VH-HZD1 with VK-HZD1 for clone HZD-V1 is inferred from the names; Variable domains were cloned onto human CH and human CK
Turning to B1, the “IC50 (read off the curve)” value in assay [1] is roughly 0.9 µg/mL.

B2: recombinant humanized antibody expressed by the HZD-V2 clone (antibody, V domains shown)
VH: B1 VH with K72R
VL: B1 VL with V29I, G31N
notes: The pairing of VH-HZD2 with VK-HZD2 for clone HZD-V2 is inferred from the names; Variable domains were cloned onto human CH and human CK
B2: in assay [1], the “IC50 (read off the curve)” value is roughly 0.9 µg/mL.

B3: EPI0030 antibody (humanized rabbit anti-VEGF monoclonal antibody expressed by the HZD-V6 clone) (antibody, human IgG1, kappa, V domains shown)
VH: EVQLVESGGGLVKPGGSLRLSCAASGFSFSNNDVMCWVRQAPGKGLEWIGCIMTTDVVTEYANWAKSRFTVSRDSAKNSVYLQMNSLRAEDTAVYFCARDSVGSPLMSFDLWGPGTLVTVSS
VL: DIQMTQSPSSLSASVGDRVTINCQASQSIYNNNELSWYQQKPGKPPKLLIYRASTLASGVPSRFSGSGSGTDFTLTISSLQPEDVATYYCGGYKSYSNDGNGFGGGTKVEIKR
Take B3: the “ratio of Kd to that of AVASTIN” value in the assay with human VEGF [2] is 0.01 fold (Kd of EPI0030 / Kd of AVASTIN); with human VEGF [3], 0.01. Moreover, in assay [1], the “IC50 (read off the curve)” value is roughly 0.9 µg/mL. The dissociation constant (Kd) (commonly the free concentration of one partner at which half of the binding sites on the other are occupied at equilibrium, for simple one-to-one binding) was 0.331 nM with human VEGF [4], 0.638 nM in the assay with human VEGF [6] and 0.485 nM with human VEGF [8]. Also, in assay [5], the 50% inhibitory concentration (IC50) (in general, the concentration that inhibits the measured activity by half) turned out to be 0.166 µg/mL. Also, in assay [7], the concentration giving a half-maximal response (EC50 (read off the curve)) (usually the concentration that produces a half-maximal response) is roughly 0.01 µg/mL.

B4: recombinant humanized antibody expressed by the HZD-V5 clone (antibody, V domains shown)
VH: B3 VH with R73K
VL: B1 VL with A1D, L2I
notes: The pairing of VH-HZD5 with VK-HZD5 for clone HZD-V5 is inferred from the names; Variable domains were cloned onto human CH and human CK
Take B4: in assay [1], the “IC50 (read off the curve)” value is roughly 0.9 µg/mL.

These data come from US20120231011A1 (APEXIGEN, published 2012).
